# Measured values from US20050079151A1, “Therapeutic agents for apoptosis-related diseases” (priority 1998, published 2005).
# Legend:
# [1] = tested on: G401 cell lines derived from Wilms tumor; assay: Inhibitory effect on apoptosis induced by a carcinostatic (MTT method); assay type: cell-based; conditions: MK 1, 10 or 100 ng/mL + cisplatin 100 μM, 12 hour culture, compared with the cisplatin treated group
# Experimental: Apoptosis was induced in G401 cell lines derived from Wilms tumor, infantile renal cancer, by a carcinostatic to examine the apoptosis-inhibitory effect of MK by the MTT method.
# Five groups were prepared; the untreated group, the cisplatin (100 μM) treated group, and the MK (1, 10 or 100 ng/mL)+cisplatin treated groups.
# G401 cells were suspended in the Dulbecco Modified Eagle Medium containing 10% fetal bovine serum (FBS) (10% FBS/DMEM) and seeded into a 96-well plate at 5000 cells/well. The plate was incubated in a CO2 incubator (37° C., 5% CO2; the same shall apply hereinbelow) so that the cells could attach to the plate.
# The cells were washed with DMEM containing 0.1% FBS (0.1% FBS/DMEM) twice (hereafter, 0.1% FBS/DMEM was used for washing unless otherwise indicated), and cultured in 0.1% FBS/DMEM overnight. After culturing, MK was added to the MK treated groups at 1, 10 or 100 ng/ml. Each group was cultured for 6 hours. Six μl of 0.5 mg/ml cisplatin (100 μM) (Bristol-Myers Squib Company; Tokyo) was added to the cisplatin treated groups. Each group was cultured in 0.1% FBS/DMEM for 2 hours. […]
# Fifteen μl of MTT reagent (5 mg/ml) (Wako Pure Chemical Laboratories; Osaka) were added to each well of the above-mentioned five groups and cultured for 4 hours. […] Absorbance (OD540-655) in each well was measured using a microplate reader.
# NG 108 cell lines = assay: Determination of DNA content in apoptosis-induced neurocytes (UV, PI staining, flow cytometry); assay type: cell-based, mouse; conditions: after UV exposure; for Ratio of cells at each cell cycle: G1: control group 7; for Ratio of cells at each cell cycle: G2/M: control group 9; for Ratio of cells at each cell cycle: S: control group 84
# Experimental: The culture flasks were coated with MK 100 ng/ml or MK 10 μg/ml. The flasks without a MK-coating (control) were also prepared.
# NG 108 cell lines, hybrid cells of mouse neuroblastoma C1300 and glioma (Nelson P. G. et al.: Brain Res., 147: 245, 1978), were cultured in a Falcon 3110 cell culture flask (75 cm^2, BECTON DICKINSON) containing 10% FBS/DMEM until the cells were almost confluent. After culturing, the cells were exposed to ultraviolet light for […] (UV radiation amount: 60-100 J/m^2) to induce apoptosis.
# The cells were collected by centrifugation (4° C., 1000 rpm, 10 min), and washed with 10 to 12 ml of sample buffer [1 g glucose/1 L PBS (−); filtered through a 0.22 μm filter] twice. The cells were adjusted to 1×10^6 to 3×10^6 cells/ml with the sample buffer, and 1 ml of them was centrifuged (4° C., 1000 rpm, 10 min) in a centrifuge tube (FALCON; 15×75 mm). The supernatant was discarded and the pellet was vigorously vortexed for 10 sec. Ethanol (70%) cooled with ice (1 ml) was added dropwise thereto and fixed at 4° C. overnight.
# The cells fixed overnight were briefly vortexed and centrifuged (3000 rpm, 5 min). 70% Ethanol in the supernatant was discarded to 0.2 ml or less. The centrifuge tubes containing the cells were slowly vortexed, and 1 ml of propidium iodide (PI) stain was added thereto. The PI stain contained 0.5 ml of 20×PI solution, 0.1 ml of 100×RNase A solution, and 10 ml of the sample buffer. Twenty-fold dilution of PI was obtained by preparing 1 mg/ml of PI solution (SIGMA), filtering it through a 0.22 μm filter, and storing it at 4° C. in the dark. RNase A solution (100×) was prepared by adjusting RIBONUCLEASE A (Type I-A) (SIGMA) (10000 U/ml) to 125 mg/ml (80 U/mg).
# The cells were lightly shaken, incubated for 30 min or longer at room temperature, and measured by flow cytometry.
# [2] = tested on: renal uriniferous tubule cells; assay: Inhibitory effect on cisplatin-induced apoptosis in renal uriniferous tubule cells of MK knockout mice; assay type: in vivo, mouse
# Experimental: Heterozygous 129/Sv knockout mice (male, 8- to 12-week old) in which parts of exons 2 and 3 of the MK gene were destroyed (Biochemistry 7, 1996, Volume 68, pp. 1239, 4-p-1244) were divided into two groups; the saline administration group and the MK administration groups (14 individuals each). As a control group, the untreated wild-type mice (four individuals) were prepared. Dosage of MK was 200 μg/kg and that of saline was 10 ml/kg.
# MK or saline was intraperitoneally administered to the mice in two groups in the morning and cisplatin 9.3 mg/kg was intraperitoneally administered to the mice in two groups in the afternoon of the same day (this day is Day 0).
# In the morning of Day 1, MK or saline was interperitoneally administered to each mouse in the same manner as on […].
# On Day 2, four mice were selected from each group (the untreated wild-type mice group and the two treated groups) to collect urine and whole blood. Clots in the collected blood were retracted for 1 hour at 37° C., and centrifuged (4° C., 8000 rpm, 10 min) to separate the serum. […]
# Blood urea nitrogen (BUN) and serum creatinine frequently used as indexes of renal dysfunction in day-to-day diagnosis were measured and proteins in urine were simply quantified. […]
# On Day 4, DNA fragmentation in the kidney paraffin sections representating strong damage was analyzed by the TUNEL method (In situ Apoptosis Detection Kit; TaKaRa).
molecule,measurement,setting,value
"MK: midkine, a heparin-binding growth and differentiation factor; human MK protein (SEQ ID NO: 3; or recombinant, secreted by yeast) (protein, UniProt P21741 21-143, looked up) Midkine: VAKKKDKVKKGGPGSECAEWAWGPCTPSSKDCGVGFREGTCGAQTQRIRCRVPCNWKKEFGADCKYKFENWGACDGGTGTKVRQGTLKKARYNAQCQETIRVTKPCTPKTKAKAKAKKGKGKD","numbers of the surviving cells (MTT, absorbance OD540-655)",[1],increased numbers of the surviving cells in an MK concentration-dependent manner
same,Ratio of cells at each cell cycle: G1,NG 108 cell lines; flask coated with MK 100 ng/ml,75%
same,Ratio of cells at each cell cycle: G2/M,NG 108 cell lines; flask coated with MK 100 ng/ml,5%
same,Ratio of cells at each cell cycle: S,NG 108 cell lines; flask coated with MK 100 ng/ml,19%
same,Ratio of cells at each cell cycle: G1,NG 108 cell lines; flask coated with MK 10 μg/ml,67%
same,Ratio of cells at each cell cycle: G2/M,NG 108 cell lines; flask coated with MK 10 μg/ml,24%
same,Ratio of cells at each cell cycle: S,NG 108 cell lines; flask coated with MK 10 μg/ml,9%
same,change of the ratio of the cells at G1 phase compared with the control group,NG 108 cell lines; in the presence of MK,increased by about tenfold
same,change of the ratio of the cells at S phase compared with the control group,NG 108 cell lines; in the presence of MK,decreased one eighth to one forth
same,number of TUNEL positive cells in kidney paraffin sections,"[2]; Day 4, MK 200 μg/kg i.p., cisplatin 9.3 mg/kg i.p., versus saline administrated group",significantly decreased
same,"renal dysfunction caused by cisplatin (BUN, serum creatinine, urine protein, HE sections)","[2]; MK 200 μg/kg i.p. daily, cisplatin 9.3 mg/kg i.p. on Day 0",effect of MK for relieving renal dysfunction caused by cisplatin was observed
